Target: Myc-MRTF, full-length Y866G mutant (UniProt P59759)
Test: co-IP; LLC-PK1 cells co-transfected with Myc-MRTF constructs and HA-TAZ constructs, IP with anti-Myc, blot for HA; untreated or LCM 30 min

Chain of UniProt P59759 (P59759 whole entry Y866G): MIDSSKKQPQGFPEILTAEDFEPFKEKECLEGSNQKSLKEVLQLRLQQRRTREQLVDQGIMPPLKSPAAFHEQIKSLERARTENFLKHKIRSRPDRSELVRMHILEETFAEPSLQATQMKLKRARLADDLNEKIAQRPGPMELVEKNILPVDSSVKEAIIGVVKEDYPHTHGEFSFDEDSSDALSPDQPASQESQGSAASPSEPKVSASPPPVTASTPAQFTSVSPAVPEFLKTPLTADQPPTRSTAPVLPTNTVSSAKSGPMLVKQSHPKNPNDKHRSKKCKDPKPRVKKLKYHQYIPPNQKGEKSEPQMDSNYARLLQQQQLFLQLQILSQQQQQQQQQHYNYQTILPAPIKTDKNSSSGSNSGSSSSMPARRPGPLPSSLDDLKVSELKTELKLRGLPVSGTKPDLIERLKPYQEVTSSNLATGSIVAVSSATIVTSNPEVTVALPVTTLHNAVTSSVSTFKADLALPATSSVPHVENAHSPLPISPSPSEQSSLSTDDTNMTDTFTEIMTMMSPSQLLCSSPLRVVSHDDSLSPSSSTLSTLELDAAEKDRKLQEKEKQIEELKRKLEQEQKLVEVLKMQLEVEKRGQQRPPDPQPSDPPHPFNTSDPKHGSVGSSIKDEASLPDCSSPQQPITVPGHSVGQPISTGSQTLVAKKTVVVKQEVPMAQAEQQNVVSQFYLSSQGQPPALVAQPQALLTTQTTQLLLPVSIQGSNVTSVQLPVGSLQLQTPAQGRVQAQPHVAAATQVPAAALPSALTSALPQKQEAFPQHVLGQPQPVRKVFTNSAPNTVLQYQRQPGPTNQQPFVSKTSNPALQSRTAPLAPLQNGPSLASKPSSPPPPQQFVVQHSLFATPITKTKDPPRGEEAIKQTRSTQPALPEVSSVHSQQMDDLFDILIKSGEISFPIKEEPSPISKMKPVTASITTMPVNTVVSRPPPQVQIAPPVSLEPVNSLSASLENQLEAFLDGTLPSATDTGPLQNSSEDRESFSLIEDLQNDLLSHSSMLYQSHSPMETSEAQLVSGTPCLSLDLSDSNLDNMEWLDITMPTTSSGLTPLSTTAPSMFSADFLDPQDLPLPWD

- reduction in association against WT MRTF: > 50%
Substance: HA-TAZ, wild type (from UniProt Q9GZV5 1-400) (natural protein)
